The values that follow come from US20040014149A1 (RIGEL PHARMACEUTICALS, published 2004).

Ends that are not written are not given here.

Assay [1] concerns the target T1, human thioredoxin-like 32 kDa protein (hTXNL) (human, UniProt O43396 1-289, limits assumed).
T1 sequence: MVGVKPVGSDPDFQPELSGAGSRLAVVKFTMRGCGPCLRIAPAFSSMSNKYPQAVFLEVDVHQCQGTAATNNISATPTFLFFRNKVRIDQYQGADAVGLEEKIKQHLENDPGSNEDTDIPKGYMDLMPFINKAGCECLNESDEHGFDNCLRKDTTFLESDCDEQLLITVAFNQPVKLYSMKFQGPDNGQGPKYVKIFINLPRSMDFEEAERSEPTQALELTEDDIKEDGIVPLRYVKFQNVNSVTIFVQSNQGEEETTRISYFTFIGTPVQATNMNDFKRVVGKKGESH
Kind of assay: cell-based or functional assay.

Assay [2] addresses T1, human thioredoxin-like 32 kDa protein …. Description: cell-based or functional assay. The source holds these as a separate data set.

As for PERCYMRMPPQSLADAQIYS (peptide, not shown: large carriers, also: expressed as BFP-linker-peptide fusion, construct not described) [peptide DR15wt], in assay [1], the “endogenous epsilon inhibition ratio (TAQMAN quantitative PCR)” value was found to be 1.56 and the “reporter ratio (original library clone, +IL-4/+Dox to +IL-4/-Dox GFP)” value turned out to be 1.43. For the same molecule, the “Reporter Ratio (A5T4 germline epsilon promoter GFP reporter line)” value in assay [2] was 1.69.

As for PERCYMRMPPQSLADAAAYS (peptide, not shown: large carriers) [peptide DR15QI], the “Reporter Ratio (A5T4 germline epsilon promoter GFP reporter line)” value in assay [2] turned out to be 1.35.

PERCAARMPPQSLADAQIYS (peptide, not shown: large carriers) [peptide DR15YM]: in assay [2], the “Reporter Ratio (A5T4 germline epsilon promoter GFP reporter line)” value was 1.22.

Turning to AARCYMRMPPQSLADAQIYS (peptide, not shown: large carriers) [peptide DR15PE], the “Reporter Ratio (A5T4 germline epsilon promoter GFP reporter line)” value in assay [2] was determined as 2.22.
